Km, kcat and kcat/Km data for one protein are collected here from publication PMC6131205, “Controlling the regioselectivity and stereospecificity of FAD-dependent polyamine oxidases with the use of amine-attached guide molecules as conformational modulators” (Bioscience Reports, 2018).

“And” between values parts separate entries of the source, which are not always exact repeats. Identical values can stand only once.

Test in all cases: purified protein, by the assay type;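 further: recombinant polyamine oxidases incubated with substrate, product amines (putrescine, 1,3-diaminopropane or butane-1,3-diamine) quantified by HPLC after post-column o-phthalaldehyde derivatization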
Substrate in data set [1]: CC(=O)N[C@H](C)CCNCCCCN
Particulars: other: Supplementary Table 1, pH 9.0, 100 mM Glycine-NaOH, 25°C, Put formation.
Procedure: (§1) HPLC with post-column o-phthalaldehyde-derivatization was used to determine the concentrations of the reaction products Put and 1,3-diaminopropane (DAP) or butane-1,3-diamine respectively as described in [30]. Fms1 activity was determined essentially as described for human recombinant APAO, but reactions were carried out in 100 mM Glycine-NaOH buffer at pH 9.0 in a water bath at +25°C [29, 30].
(§2) The reactions were carried out in 1 triplicate at pH 9.0 in 100 mM Glycine-NaOH at +25°C.
(§3) values for N -Ac-MeSpd enantiomers were determined by using substrate concentrations of 25, 50,
(§4) for Rac-MeSpd 30 min, (R)-MeSpd 20 min and (S)-MeSpd 40 minutes.
(§5) The reactions were carried out in triplicate at pH 9.0 in 100 mM Glycine-NaOH at +25°C.
(§6) values for MeSpd enantiomers were determined by using substrate concentrations of 100, 300, 600,
(§7) 1000, 2000 and 4000 M. Recombinant Fms1 was 3.8 g/reaction and the incubation time 60
(§8) incubated for 30 min (half of the reaction time of an ordinary sample). E1 cleavage was monitored
(§9) by HPLC by measuring Put formation and E2 cleavage by determining butane-1,3-diamine content.

Substrate in data set [2]: CC(=O)N[C@@H](C)CCNCCCCN
As to conditions: other: Supplementary Table 1, pH 9.0, 100 mM Glycine-NaOH, 25°C, Put formation.
Procedure: as §1, §2, §3, §4, §5, §6, §7, §8, §9

Substrate in data set [3]: CC(=O)NCCCCNCCCN
As to conditions: other: substrate alone, no aldehyde, pH 9.0, 25°C.
Procedure: as §1, §2, §3, §4, §5, §6, §7, §8, §9

Substrate in data set [4]: CC(=O)NC(C)CCNCCCCN
Particulars: other: Supplementary Table 1, pH 9.0, 100 mM Glycine-NaOH, 25°C, Put formation.
Procedure: as §1, §2, §3, §4, §5, §6, §7, §8, §9

Substrate in data set [5]: CC(=O)NCCCNCCCCN
As to conditions: other: substrate alone, no aldehyde, pH 9.0, 25°C.
Procedure: as §1, §2, §3, §4, §5, §6, §7, §8, §9

Substrate in data set [6]: CC(N)CCNCCCCN
As to conditions: other: Supplementary Table 2, pH 9.0, 25°C.
Procedure: as §1, §2, §3, §4, §5, §6, §7, §8, §9

Substrate in data set [7]: NCCCCNCCCN
Procedure: as §1, §2, §3, §4, §5, §6, §7, §8, §9
As to conditions: other: substrate alone, no aldehyde, pH 9.0, 25°C.

B1: Fms1 (Saccharomyces cerevisiae S288C) (protein)
chain: MNTVSPAKKKVIIIGAGIAGLKAASTLHQNGIQDCLVLEARDRVGGRLQTVTGYQGRKYDIGASWHHDTLTNPLFLEEAQLSLNDGRTRFVFDDDNFIYIDEERGRVDHDKELLLEIVDNEMSKFAELEFHQHLGVSDCSFFQLVMKYLLQRRQFLTNDQIRYLPQLCRYLELWHGLDWKLLSAKDTYFGHQGRNAFALNYDSVVQRIAQSFPQNWLKLSCEVKSITREPSKNVTVNCEDGTVYNADYVIITVPQSVLNLSVQPEKNLRGRIEFQPPLKPVIQDAFDKIHFGALGKVIFEFEECCWSNESSKIVTLANSTNEFVEIVRNAENLDELDSMLEREDSQKHTSVTCWSQPLFFVNLSKSTGVASFMMLMQAPLTNHIESIREDKERLFSFFQPVLNKIMKCLDSEDVIDGMRPIENIANANKPVLRNIIVSNWTRDPYSRGAYSACFPGDDPVDMVVAMSNGQDSRIRFAGEHTIMDGAGCAYGAWESGRREATRISDLLK
With B1, the Km (usually the substrate concentration at which the rate is half of its maximum) in data set [1] is 155 ± 29 µM; in data set [2], 109 ± 18 µM; in data set [3] it was 122 ± 18 µM; in data set [4], 140 ± 23 µM; in data set [5], 42 ± 8 µM; in data set [6] (Put formation) it was 502 µM and 555 µM. Also, the Km was 467 µM and 606 µM in data set [6] (butane-1,3-diamine formation); 534 ± 36 µM and 643 ± 52 µM in data set [7]. For the same protein, the kcat – broadly, the maximal rate divided by the concentration of active sites – in data set [3] is 1.4 ± 0.1 s⁻¹; in data set [5], 65 ± 2 s⁻¹; in data set [6] (Put formation), 0.014 ± 0 s⁻¹ and 0.011 ± 0 s⁻¹; in data set [6] (butane-1,3-diamine formation), 0.006 ± 0 s⁻¹ and 0.013 ± 0 s⁻¹. Also, the kcat/Km (usually the second-order rate constant that governs catalysis at low substrate concentration) in data set [3] was “(12 ± 1.8) × 10^3 M^−1s^−1”; in data set [5], “(1600 ± 300) × 10^3 M^−1s^−1”; in data set [6] (Put formation), 28 M⁻¹ s⁻¹ and 20 M⁻¹ s⁻¹; in data set [6] (butane-1,3-diamine formation), 13 M⁻¹ s⁻¹ and 22 M⁻¹ s⁻¹.
